Assay results published in patent US10947289B2, “Glyco-modified atrial natriuretic peptide” (priority 2013, dated 2021).

assay: Detection of test substance in rat plasma by LC-MS/MS (Test Example 3); format: in vivo; conditions: rat plasma, 100 nmol/kg i.v., LC-MS/MS; time at which the test substance was finally detected
Description: Before the administration and 15, 30, 60, 90, 120, 180, and 240 minutes after the administration, blood was sampled (200 μL/sampling) over time from the jugular vein. The blood samples were immediately left on ice.
The collected blood samples were centrifuged at 5000 rpm at 4° C. for 5 minutes by use of a centrifuge (Sigma 4K15, rotor: Nr12130-H). The separated plasma samples were divided into two types (samples for PK measurement and for cGMP measurement) and stored at −80° C. until measurement.
An internal standard (20 μL (500 nM) of a stable isotope of hANP) and an acetic acid mixed solvent (AcOH/distilled water/DMSO=5/3/2, v/v/v) were added to 50 μL of each rat plasma sample prepared in (1) and then mixed therewith. The mixture was transferred to Amicon Ultra-0.5 50K (Millipore Corp., MA) and centrifuged at 14000 rpm at 15° C. for 30 minutes. The obtained filtrate was transferred to Amicon Ultra-0.5 3K (Millipore Corp., MA) and centrifuged again under the aforementioned conditions. The solution remaining on the filter was recovered and transferred to a 96-well deep well plate. The content of the test substance was measured by LC-MS/MS (LC: Shimadzu LC-10ADVP (Shimadzu Corp.), MS/MS: API 4000 QTrap (AB SCIEX)) to calculate the concentration in plasma. The time at which the test substance was finally detected is shown in the rightmost column of Table 2.

**Q.** With CC[C@H](C)[C@@H]1NC(=O)[C@H](CCCNC(=N)N)NC(=O)[C@H](CC(=O)O)NC(=O)[C@H](CCSC)NC(=O)[C@H](CCCNC(=N)N)NC(=O)CNC(=O)CNC(=O)[C@H](Cc2ccccc2)NC(=O)[C@@H](NC(=O)[C@H](CO)NC(=O)[C@H](CO)NC(=O)[C@H](CCCNC(=N)N)NC(=O)[C@H](CCCNC(=N)N)NC(=O)[C@H](CC(C)C)NC(=O)[C@H](CO)NC(=O)CCc2cn(CCO[C@@H]3O[C@H](CO)[C@@H](O[C@@H]4O[C@H](CO)[C@@H](O[C@@H]5O[C@H](CO[C@H]6O[C@H](CO)[C@@H](O)[C@H](O)[C@@H]6O[C@@H]6O[C@H](CO)[C@@H](O[C@@H]7O[C@H](CO[C@]8(C(=O)O)C[C@H](O)[C@@H](NC(C)=O)[C@H]([C@H](O)[C@H](O)CO)O8)[C@H](O)[C@H](O)[C@H]7O)[C@H](O)[C@H]6NC(C)=O)[C@@H](O)[C@H](O[C@H]6O[C@H](CO)[C@@H](O)[C@H](O)[C@@H]6O[C@@H]6O[C@H](CO)[C@@H](O[C@@H]7O[C@H](CO[C@]8(C(=O)O)C[C@H](O)[C@@H](NC(C)=O)[C@H]([C@H](O)[C@H](O)CO)O8)[C@H](O)[C@H](O)[C@H]7O)[C@H](O)[C@H]6NC(C)=O)[C@@H]5O)[C@H](O)[C@H]4NC(C)=O)[C@H](O)[C@H]3NC(C)=O)nn2)CSSC[C@@H](C(=O)N[C@@H](CC(N)=O)C(=O)N[C@@H](CO)C(=O)N[C@@H](Cc2ccccc2)C(=O)N[C@@H](CCCNC(=N)N)C(=O)N[C@@H](Cc2ccc(O)cc2)C(=O)O)NC(=O)CNC(=O)[C@H](CC(C)C)NC(=O)CNC(=O)[C@H](CO)NC(=O)[C@H](CCC(N)=O)NC(=O)[C@H](C)NC(=O)CNC1=O [Compound 2-12, SG-triazole-hANP(1-28)] as the compound, how does the “Maximum time of detection after administration” value (“Maximum time of detection” for short) read?
**A.** 1.5 h

**Q.** For CC[C@H](C)[C@@H]1NC(=O)[C@H](CCCNC(=N)N)NC(=O)[C@H](CC(=O)O)NC(=O)[C@H](CCSC)NC(=O)[C@H](CCCNC(=N)N)NC(=O)CNC(=O)CNC(=O)[C@H](Cc2ccccc2)NC(=O)[C@@H](NC(=O)[C@H](CO)NC(=O)[C@H](CO)NC(=O)[C@H](CCCNC(=N)N)NC(=O)[C@H](CCCNC(=N)N)NC(=O)[C@H](CC(C)C)NC(=O)[C@H](CO)NC(=O)CO[C@@H]2O[C@H](CO)[C@@H](O[C@@H]3O[C@H](CO)[C@@H](O[C@@H]4O[C@H](CO[C@H]5O[C@H](CO)[C@@H](O)[C@H](O)[C@@H]5O)[C@@H](O)[C@H](O[C@H]5O[C@H](CO)[C@@H](O)[C@H](O)[C@@H]5O)[C@@H]4O)[C@H](O)[C@H]3NC(C)=O)[C@H](O)[C@H]2NC(C)=O)CSSC[C@@H](C(=O)N[C@@H](CC(N)=O)C(=O)N[C@@H](CO)C(=O)N[C@@H](Cc2ccccc2)C(=O)N[C@@H](CCCNC(=N)N)C(=O)N[C@@H](Cc2ccc(O)cc2)C(=O)O)NC(=O)CNC(=O)[C@H](CC(C)C)NC(=O)CNC(=O)[C@H](CO)NC(=O)[C@H](CCC(N)=O)NC(=O)[C@H](C)NC(=O)CNC1=O [Compound 2-26, AG(5)-hANP(1-28)], which “Maximum time of detection” value is on record?
**A.** 2 h

**Q.** For CC[C@H](C)[C@@H]1NC(=O)[C@H](CCCNC(=N)N)NC(=O)[C@H](CC(=O)O)NC(=O)[C@H](CCSC)NC(=O)[C@H](CCCNC(=N)N)NC(=O)CNC(=O)CNC(=O)[C@H](Cc2ccccc2)NC(=O)[C@@H](NC(=O)[C@H](CO)NC(=O)[C@H](CO)NC(=O)[C@H](CCCNC(=N)N)NC(=O)[C@H](CCCNC(=N)N)NC(=O)[C@H](CC(C)C)NC(=O)[C@H](CO)NC(=O)CCOCCOCCOCCOCCNC(=O)CO[C@@H]2O[C@H](CO)[C@@H](O[C@@H]3O[C@H](CO)[C@@H](O[C@@H]4O[C@H](CO[C@H]5O[C@H](CO)[C@@H](O)[C@H](O)[C@@H]5O[C@@H]5O[C@H](CO)[C@@H](O[C@@H]6O[C@H](CO[C@]7(C(=O)O)C[C@H](O)[C@@H](NC(C)=O)[C@H]([C@H](O)[C@H](O)CO)O7)[C@H](O)[C@H](O)[C@H]6O)[C@H](O)[C@H]5NC(C)=O)[C@@H](O)[C@H](O[C@H]5O[C@H](CO)[C@@H](O)[C@H](O)[C@@H]5O[C@@H]5O[C@H](CO)[C@@H](O[C@@H]6O[C@H](CO[C@]7(C(=O)O)C[C@H](O)[C@@H](NC(C)=O)[C@H]([C@H](O)[C@H](O)CO)O7)[C@H](O)[C@H](O)[C@H]6O)[C@H](O)[C@H]5NC(C)=O)[C@@H]4O)[C@H](O)[C@H]3NC(C)=O)[C@H](O)[C@H]2NC(C)=O)CSSC[C@@H](C(=O)N[C@@H](CC(N)=O)C(=O)N[C@@H](CO)C(=O)N[C@@H](Cc2ccccc2)C(=O)N[C@@H](CCCNC(=N)N)C(=O)N[C@@H](Cc2ccc(O)cc2)C(=O)O)NC(=O)CNC(=O)[C@H](CC(C)C)NC(=O)CNC(=O)[C@H](CO)NC(=O)[C@H](CCC(N)=O)NC(=O)[C@H](C)NC(=O)CNC1=O [Compound 2-29, SG-PEG(3)-hANP(1-28)], which “Maximum time of detection” value is on record?
**A.** 2 h

**Q.** With CC[C@H](C)[C@@H]1NC(=O)[C@H](CCCNC(=N)N)NC(=O)[C@H](CC(=O)O)NC(=O)[C@H](CCSC)NC(=O)[C@H](CCCNC(=N)N)NC(=O)CNC(=O)CNC(=O)[C@H](Cc2ccccc2)NC(=O)[C@@H](NC(=O)[C@H](CO)NC(=O)[C@H](CO)NC(=O)[C@H](CCCNC(=N)N)NC(=O)[C@H](CCCNC(=N)N)NC(=O)[C@H](CC(C)C)NC(=O)[C@H](CO)NC(=O)CCOCCOCCOCCOCCOCCOCCOCCOCCOCCOCCOCCOCCNC(=O)CO[C@@H]2O[C@H](CO)[C@@H](O[C@@H]3O[C@H](CO)[C@@H](O[C@@H]4O[C@H](CO[C@H]5O[C@H](CO)[C@@H](O)[C@H](O)[C@@H]5O[C@@H]5O[C@H](CO)[C@@H](O[C@@H]6O[C@H](CO[C@]7(C(=O)O)C[C@H](O)[C@@H](NC(C)=O)[C@H]([C@H](O)[C@H](O)CO)O7)[C@H](O)[C@H](O)[C@H]6O)[C@H](O)[C@H]5NC(C)=O)[C@@H](O)[C@H](O[C@H]5O[C@H](CO)[C@@H](O)[C@H](O)[C@@H]5O[C@@H]5O[C@H](CO)[C@@H](O[C@@H]6O[C@H](CO[C@]7(C(=O)O)C[C@H](O)[C@@H](NC(C)=O)[C@H]([C@H](O)[C@H](O)CO)O7)[C@H](O)[C@H](O)[C@H]6O)[C@H](O)[C@H]5NC(C)=O)[C@@H]4O)[C@H](O)[C@H]3NC(C)=O)[C@H](O)[C@H]2NC(C)=O)CSSC[C@@H](C(=O)N[C@@H](CC(N)=O)C(=O)N[C@@H](CO)C(=O)N[C@@H](Cc2ccccc2)C(=O)N[C@@H](CCCNC(=N)N)C(=O)N[C@@H](Cc2ccc(O)cc2)C(=O)O)NC(=O)CNC(=O)[C@H](CC(C)C)NC(=O)CNC(=O)[C@H](CO)NC(=O)[C@H](CCC(N)=O)NC(=O)[C@H](C)NC(=O)CNC1=O [Compound 2-30, SG-PEG(11)-hANP(1-28)] as the compound, how does the “Maximum time of detection” value read?
**A.** 4 h
